From the nanobody polyreactivity screen of Harvey et al. (2022)

Test: yeast display, Sf9 membrane polyspecificity reagent, FACS + sequencing; frameworks hold sequencing errors
Method in brief: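 Galactose-induced (36–48 hours) yeast carrying a synthetic nanobody display library were exposed to 10% biotinylated, detergent-solubilized Sf9 membrane reagent at 4 °C for 1 hour. FACS followed streptavidin microbead enrichment, using low and high (top ~1%) gates for expression (anti-HA) and reagent binding (streptavidin). Colony PCR, MiSeq 2 × 250 sequencing and CDR-length filtering followed. Labels for polyreactivity reflect the gate of origin.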

Sequence | polyreactivity (PSR sort gate)
QVQLVESGGGLVQAGGSLRLSCAASGRSFYTNVMGWYRQAPGKERELVAAISSAGTTYYADSVKGRFTISRDNAKNTVYLQMNSLKPVDSEVYYCAADQVAYYGFDYWGQGTQVTVST | low polyreactivity
QVQLVESGGGLVQAGGSLRLSCAASGSTFFRYTMGWYRQAPGKERELVAAISWSGGSTYYADSVKGRFTISRDNAKNTVYLQMNSLKPEDTAVYYCAAVYEWDAVKWVDVDMDYWGQGTQVTVSS | low polyreactivity
QVQLVESGRGLVQAGGSLRLSCAASGSNFSVYAMGWYRKAPGKERELVAGITRGGSTYADSVKGRFTISRDNAKNTVYLQMNCLKPEDTAVYYFNAVWSNFRLGYDYWGQGTQVTVSS | high polyreactivity
QVQLVESGGGLVQAGGSLRLSCAASGRIFGWYAMGSYRQAPGKEREFVAAITRRGGRTYYADSVKGRFTISRDNEKNNVYLQMNSLKPEDTAVYYCAVKYVRIGGVGPIVIYNYWGQGTQVTVSS | high polyreactivity
QVQLVESRGGLVQAGGSLRLSCAASGFILVIYAMGWYRQAPRKERELVAAITSDGSTNYADSVKGRFTISRDNAKNSVYLQMNSLKPEDTAVYYCAADAVNPLDYWGLGTQVTVSS | low polyreactivity
QVQLVESGGGIVQAGGSLRLSIAASGNILNGNVMGWSRPEPGKERELVAAITSGGDTYYADSVKGRFTISRDNAKNTVYFQMNSLKPEDTAVYYCAADRPGQPKYEYWGQGTQVTVSS | low polyreactivity
QVQLVESGGGLVQAGGSLRLSCAASGRIISPYAMGWYRQAPGKERELVAAISWRGSSTYYADSVKGRFTISRDNAKNTVYLQMNSLKPEDTAVYYCAAVYYRGIQSYDYWGQGTQVTVSS | low polyreactivity
QVQLVESGGGLVQAGGSLRLSCSASGFIFGKYAMGRYRQAPGKERELVAAISKSGGSTYYADSVKGRFTISRDNAKNTVYLQMNSLKPEDTAVYYCDARSLGHYGSWGQGTQVTVSS | high polyreactivity
QVQLVESGGGLVQAGGSLRLSCAASGSTYSWYVMGWYRQAPGKERELVAAISYRGGRTYYADSVKGRFTISRDNAKNTVYLQMNSLKPEDTAVYYCAARGVVDAGRTNRPYDYWGQGTQVTVSS | low polyreactivity
QVQLVESGGGLVQAGGSLRLSCAASGSIFGQYAMGWYRQAPGKEREYVAAISWRGTSTYYADSVKGRFTISRDNAKNTVYLQMNSLKPEDTAVYYCAGRYVKPSRYKYNYWGQGTQVTVSS | high polyreactivity
QVQLVESGAGLVQAGASLRLSCAASGRIFPWNAMGWSRQEPGKERELVAAISFSAGRTYYADSVKGRFTISRDNAKNTVYLQMNSLKPEDTAVYYCNARIGSRWVWTGIICYEYWGKGTQVTVSS | low polyreactivity
QVQLVESGGGLVQAGGSLRLSCAASGSTFLTNTMGWYRQAPGKERELVAAITLRGGRTYYADSVKGRFTISRDNAKNTVYLQMNSLKPEDTAVYYCNARNYYYPSDRDYWGQGTQVTVSS | low polyreactivity
QVQLVESGGGLDQAGGSLRLSCAASGIIFRNYAMGWYRQAPGKERELVATITGDGGSTYYADSVKGRFTISRDNAKNTVYLQMNSLKPEDTAVYYCNADVSKRGWTTYWYGYGYYYWGQGTQVTVSS | low polyreactivity
QVQLVESGGGLVQAGGSLRLSCAASGSIFYFYAMRWYRQAPGKERELVAAITDGGASTRYADSVKGRFTISRDYAKNTVYLHMNSLKPEDTAVYYCNARKYWKYGSYQYYWGQGTQVTVSW | high polyreactivity
QDQLVESGGGLVQAGGSLRLSCAASGIIYLTYAMGRYRQEPGKERELVATITSGGRTIYADSVKGRFTISLDNAKNTVYLQMNRLKPVDTAVYYCNALRYYHYDYWGQGTQVTVSS | high polyreactivity
QVQLVESGGGLVQAGGSLRLSCAASGSTFEYYVMGWYRQAPGKERELVAAISGSGGGTYYADSVKGRFTISRDNAKNTVYLQMNSLKPEDTAVYYCAAVATQEKYDYWGQGTQVTVSS | low polyreactivity
QVQLVESGGGLVQAGGSLRLSCAASGRIWYYAMGWYRQAPGKERELVAAISFSGGTTYYADSVKGRFTISRDNAKNTVYFPMNSLKPEDTGVYYCNKVSVGRYKRDYWGQGTQVTVSS | high polyreactivity
QVQLVESGGGVVQAGGSLRLSCAASGSIFNRYAMGWYRQAPGKERELVAATSSGGSTYYADSVKGRFTISRDNAKNTVYLQMNSLKPEDTAVYYCAARSRYRSTPPTYDYWGQGTQVTVSS | low polyreactivity
QVQLVESGGGLVQAGGSLRLSCAASGSIFIPNAMGWYRQAPGKERELVAAIRSGGSTYYADSVKGRFTISRDNAKNTVYLQLLSLKPEDTAVYYCAADTYTYYYYLARYYYWGQGTQVTVSS | low polyreactivity
QVQLVESGGGLVQAGGSLRLSCAAYGSLFDSNAMGWYRQAPRKERELVAAITVSGTSTYYADSVNGRFTISRDNEKNTVYLQMNSLKPEYTEVYYCAAAQEYLTDHDYWGQGTQVTVSS | low polyreactivity
QVQLVESGGGLVQAGGSLRLSCAASGSTFVRYAMGWYRQAPGKERELVAAIRGGGGTYYADSVKGRFTISRDNAKNTVYLQMNSLKPVDTAVYYCAADTYYYYWFAGYTEYDYWGQGTQVTVSS | low polyreactivity
QVQLVESGGGLVQAGGSLRLSCAASGRLFTYYVMGWYRQAPGKERELVAAISYGGGSTYYADSVKGRFTISRDNAKNTVYLQMNSLKPEDTAVYYCAAEDGYRKMDYWGQGTQVTVSS | low polyreactivity

Sequence | polyreactivity (PSR sort gate)
QVQLVESGGGLVQAGGSLRLSCAASGLTFKYYAMGWYRQAPGKERELVAAITATGGLTYYADSEKGRFTISRDNAKKTVYLQMNSLKPEDTAVYYCNARQHQTYYFYKHDYWGQGTQVTVSS | high polyreactivity
QVQLVESGGGLVQAGGSLRLSCAASGFTFSGYAMGWYRQAPGKERELVAAISTSGGNTYYADSVKGRFTISRDNAKNTVYLQMNSLKPEDTAVYYCAADDWPWGDAGVDYWGQGTLVTVSS | low polyreactivity
QVQLVESGGGLVQAGGSLRLSCAASGSIIRVNTMGWYRQAPGKERELVAGITSRGGSTYYADSVKGRFTISRDNAKNTVYLQMISLKPEDTAFYYCANRAYGTALYRGYGNWGQGTQVTVSS | low polyreactivity
QVQLVESGGGLVQAGGSLRLSCAASGSTFIQNAMGWYTQAPGKERELVAAITSGGGTNYADSVKGRFTISRDNAKNTVYLQMNSLKPEDTAVYYCAAEPFNYVEFWFGWEYQYDYWGQGTQVTVSS | low polyreactivity
QVHLVESGGGLVQAGGSLRLSCAASGRTFYSYVMGWYRQAPGKERELVAAISSTGGTYADSVKGRFTISRDNAKNTVYLQINSLKPEETAVYYCAAATPTGYKRGGYWGQGTQVTVSS | low polyreactivity
QVQLVESGGGLVQAGGSLGLSCAASGFSFDRNAMGWYRQAPGKERGLVAAISSSGGRTYYPDSVKGRFTISRDYAKKTVYLQMNSLKPDDTAVYYCAAKLSRRYYYWGQGTQVTVSS | high polyreactivity
QVQLVESGGGLVQAGGSLSLSCASSGSTLTYYAMGWYRQEPGKEREFVAAIRWSSGNTYYADSVKGRFTISRDNAKNTVYLQMNSLKPEDTAVYYCAKERRYTGRRSYEYDYWGQGTQVTVSS | low polyreactivity
QLQLVESGGGLVQAGGSLRLSCAASGSIFSFYAMGGYRQAPGKERELVATITYGSGSTHYADSVKGRFTISRDNAKNTVYLQLNSLKPEDSAVYYCAGETVRYEWGDSPAALFDYWGQGTQVTVSS | low polyreactivity
QVQLVESGGGLVQAGGSLRLSCAASGRTFYVYTMGWYRQAPGKERELVAAITSGGSTNYADSVKGRFTISRDNAKNTVYLQMNSLKPEDTAVYYCAARVSTVFKRYYYCGQGTQVTVSS | high polyreactivity
QVQLVESGGGLVQAGGSLRLSCAASGSIFTHYAMGWYRQAPGKERELVAGITSSGGSTYADSVKGRFTISRDNAKNTVYLQMNSLKPEDTAVYYCNADNATYFVYEFNYWGQGTQVTVSS | low polyreactivity
QVQLVESGGGLVQAGGSLRLSCAASGRTFFPYAMGWYRQAPGKERELVAAITGSGSSTNYADSVKGRFTISRDNAKNTVYLQMTRLKPVDTAVYYCAKPYYRLEDYWGQGTQVTVSS | low polyreactivity
QVQLVESGGRLVQAVGSLRLSCAASGFTSHKYAMGWYRQAPGKERELVAAITSSGGRTYYADSVKGRFTISRDNAKNTVYFQTNSLKPEDTAVYYCNKLGRVGDAREYWGQGTQVTVSS | high polyreactivity
QVQLVESGGGLVQAGGSLRLSCAASGRTFDYYAMGWYRQAPGKERELVAAITSGGSTYYADSVKGRFTISRDNAKNTDYLQMNSLKPEDTAVYYCAKSWALTRGYGSRYYVYRYDYWGQGTQVTVSS | low polyreactivity
QVQLVESGGGLVQAGGSLRLSCAASGRIFLFYTMGWYRQAPGKERELVAGITFSGGSTYYADSVKGRFTISRDNAKNTVYLQMNSLKPEDTAVYYCNARRWWQSYDYWGQGTQVTVSS | high polyreactivity
QVQLVESGGGLVQAGGSLRLSCAASGSIFQRYAMGWYRQAPGKEREFVAAISGRGGSTYYADSVKGRFTISRDNAKNTVYLQMNSLKPEDTAVYYCADDSSRFYGRPRYYYWGQGTQVTVSS | high polyreactivity
QVQLVESGGGLDQAGGSLRLSCAASGSIFYHNAMGWYRQAPGKERELVAAITGSGGSTYYADSVKWRFTISRDNAKNTFYLQMNSLKPEDTAVYYCAADYDYQYRYYYWGQGTQVTVSS | low polyreactivity
QVQLVESGGGLVQAGGSLRLSCAASGFTFVVNAMAWYRQAPGKEREFVAAIRQSGGSTYYADSVKGRFTISRDNAKNTVYLQMNSLKPEDTAVYYCNAEDWGYGYDYWGQGTQVTVSS | low polyreactivity
QVQLVESGGGLVQAGGSLRLSCAASGRIFIWYTMGWYRQAPGNERELVASITGGGGSTYYADSVKGRFTISRDNAKNTVYFQMNSLKPEETAVYDCNAVYRRRYDYWGQGTQVTVSS | high polyreactivity
QVQLVESGGGLVQAGGTLRLSCAASGGIFSYAMGWYRQAPGKERELVADINSDGSTTYADSVKGRFTISRDNAKNTVYLQMNSLKPEDTAVYYCAADTYFWSYSYNYYYWGQGTQVTVSS | low polyreactivity
QVQLVESGGGLVQAGGSLRLSCAASGSIFVAYAMGWYRQAPGKERELVAAITYSAGSTYYADSVKGRFTISRDNAKNTVYLQMNSLKPEDTAVYYCAADTYTYFLASYLYGQYDYWGQGTQVTVSS | low polyreactivity
QVQLVESGGGLVQAGGSLRLSCAASGRTLKYNAMGWYRQAPGKERELVAAISYSGSSTYYADSVKWRFTISRDNAKNTVYLQMNSLKPEDNAVYYCNSARPTAAYDYWGQGTQVTVSS | low polyreactivity
